Test results as given in the RNAGym collection of RNA variant scans (doi:10.7554/elife.80360).

B1: HDV Ribozyme (parent)
chain: GGCCGGCAUGGUCCCAGCCUCCUCGCUGGCGCCGGCUGGGCAACAUUCCGAGGGGACCGUCCCCUCGGUAAUGGCGAAUGGGACCCA

Variants of: B1
Test: self-cleavage, relative activity (ratio to wild type); higher = more cleavage; co-transcriptional

Variant | self-cleavage
AGCCGGCAUGGUCCCAGCCUCCUCGCUGGCGCCGGCUGGGCAACAUUCCGAGGGGACCGUCCCCUCGGUAAUGGCGAAUGGGACCCG | 0.141
AGCCGGCAUGGUCCCAGCCUCAUCGCUGGCGCCGGCUGGGCAACAUUCCGAGGGGACCGUCCCCUCGGUAAUGGCGAAUGGGACCCA | 0.0831
AGCCGGCAUGGUCCCAGCCUCUUCGCUGGCGCCGGCUGGGCAACAUUCCGAGGGGACCGUCCCCUCGGUAAUGGCGAAUGGGACCCA | 0.0779
AGCCGGCAUGGUCCCAGCCUCCUCGCUGGCGCCGGCUGGGCAACAUUCCGAGGGGACCGUCCCCUCGGUAAUGGCGAAUGGGUCCCA | 0
AGCCGGCAUGGUCCCAGCCUCCUCGCUGGCGCCGGCUGGGCAACAUUCCGAGGGGACCGUCCCCUCGGUAAUGGCGAAUGGGGCCCA | 0.219
AGCCGGCAUGGUCACAGCCUCCUCGCUGGCGCCGGCUGGGCAACAUUCCGAGGGGACCGUCCCCUCGGUAAUGGCGAAUGGGACCCA | 0.0573
AGCCGGCAUGGUCUCAGCCUCCUCGCUGGCGCCGGCUGGGCAACAUUCCGAGGGGACCGUCCCCUCGGUAAUGGCGAAUGGGACCCA | 0.415
AGCCGGCAUGGUCCCAGCCUCCUCGCUGGCGCCGGCUGGGCAACCUUCCGAGGGGACCGUCCCCUCGGUAAUGGCGAAUGGGACCCA | 0.268
AGCCGGCAUGGUCCCAGCCUCCUCGCUGGCGCCGGCUGGGCAACGUUCCGAGGGGACCGUCCCCUCGGUAAUGGCGAAUGGGACCCA | 0.185
AGCCGGCAUGGUCCCAGCCUCCUCGCUGGCGCCGGCUGGGCAACAUUCUGAGGGGACCGUCCCCUCGGUAAUGGCGAAUGGGACCCA | 0
AGCCGGCAUGGUUCCAGCCUCCUCGCUGGCGCCGGCUGGGCAACAUUCCGAGGGGACCGUCCCCUCGGUAAUGGCGAAUGGGACCCA | 0.119
AGCCGGCAUGGUGCCAGCCUCCUCGCUGGCGCCGGCUGGGCAACAUUCCGAGGGGACCGUCCCCUCGGUAAUGGCGAAUGGGACCCA | 0
AGCCGGCAUGGUACCAGCCUCCUCGCUGGCGCCGGCUGGGCAACAUUCCGAGGGGACCGUCCCCUCGGUAAUGGCGAAUGGGACCCA | 0.0639
AGCCGGCAUGGUCCCAGCCUCCUCGCUGGCGCCGGCUGGGCAACAUUCCGAGGGGGCCGUCCCCUCGGUAAUGGCGAAUGGGACCCA | 0
AGCCGGCAUGGUCCCAGCCUCCUCGCUGGCGCCGGCUGGGCAACAUUCCGAGGGGUCCGUCCCCUCGGUAAUGGCGAAUGGGACCCA | 0.217
AGCCGGCAUGGUCCCAGCCUCCUCGCUGGCGCCGGCUGGGCAACAUUCCGAGGGGCCCGUCCCCUCGGUAAUGGCGAAUGGGACCCA | 0.107
AGCCGGCCUGGUCCCAGCCUCCUCGCUGGCGCCGGCUGGGCAACAUUCCGAGGGGACCGUCCCCUCGGUAAUGGCGAAUGGGACCCA | 0
AGCAGGCAUGGUCCCAGCCUCCUCGCUGGCGCCGGCUGGGCAACAUUCCGAGGGGACCGUCCCCUCGGUAAUGGCGAAUGGGACCCA | 0.166
AGCCGGCAUGGUCCGAGCCUCCUCGCUGGCGCCGGCUGGGCAACAUUCCGAGGGGACCGUCCCCUCGGUAAUGGCGAAUGGGACCCA | 0
AGCCGGCAUGGUCCCAGCCUCCUCGCUGGCGCCGGCUGGGCAACAUUCCGAGGGGACCGUUCCCUCGGUAAUGGCGAAUGGGACCCA | 0.26
AGCCGGCAUGGUCCCAGCCUCCUCGCUGGCGCCGGCUGGGCAACAUUCCGAGGGGACCGUGCCCUCGGUAAUGGCGAAUGGGACCCA | 0.0831
AGCCGGCAUGGUCCCAGCCUCCUCGCUGGCGCCGGCUGGGCAACAUUCCGAGGGGACCGUACCCUCGGUAAUGGCGAAUGGGACCCA | 0.145

Variant | self-cleavage
AGCCGGCAUGGUCCCAGCUUCCUCGCUGGCGCCGGCUGGGCAACAUUCCGAGGGGACCGUCCCCUCGGUAAUGGCGAAUGGGACCCA | 0.101
AGCCGGCAUGGUCCCAGCAUCCUCGCUGGCGCCGGCUGGGCAACAUUCCGAGGGGACCGUCCCCUCGGUAAUGGCGAAUGGGACCCA | 0.0744
AGCCGGCAUGGUCCCAGCCUCCUCGCUGGCGCCGGCUGGGCAACAUUCCGGGGGGACCGUCCCCUCGGUAAUGGCGAAUGGGACCCA | 0
AGCCGGCAUGGUCCCAGCCUCCUCGCUGGCGCCGGCUGGGCAACAUUUCGAGGGGACCGUCCCCUCGGUAAUGGCGAAUGGGACCCA | 0
AGCCGGCAUGGUCCCAGCCUCCUCGCUGGCGCCGGCUGGGCAACAUUGCGAGGGGACCGUCCCCUCGGUAAUGGCGAAUGGGACCCA | 0.199
AGCCGGCAUGGUCCCUGCCUCCUCGCUGGCGCCGGCUGGGCAACAUUCCGAGGGGACCGUCCCCUCGGUAAUGGCGAAUGGGACCCA | 0
AGCCGGCAUGGUCCCCGCCUCCUCGCUGGCGCCGGCUGGGCAACAUUCCGAGGGGACCGUCCCCUCGGUAAUGGCGAAUGGGACCCA | 0.158
AGCCGGCAUGGUCCCAGCCUCCUCGCUGGCGCCGGCUGGGCAACAUUCCGAGGGGACCGUCCCCUCGGUAAUGGCGGAUGGGACCCA | 0.237
AGCCGGCAUGGUCCCAGCCUCCUCGCUGGCGCCGGCUGGGCAACAUUCCGAGGGGACCGUCCCCUCGGUAAUGGCGUAUGGGACCCA | 0
AGCCGGCAUGGUCCCAGCCUCCUCGCUGGCGACGGCUGGGCAACAUUCCGAGGGGACCGUCCCCUCGGUAAUGGCGAAUGGGACCCA | 0.0386
AGCCGGCAUGGUCCCAGCCUCCUCGCUGGCGUCGGCUGGGCAACAUUCCGAGGGGACCGUCCCCUCGGUAAUGGCGAAUGGGACCCA | 0.133
AGCCGGCAUGGUCCCAGCCUCCUCGCUGGCGGCGGCUGGGCAACAUUCCGAGGGGACCGUCCCCUCGGUAAUGGCGAAUGGGACCCA | 0.113
AGCCGGCAUGGUCCCAGCCUCCUCGCUGGCGCUGGCUGGGCAACAUUCCGAGGGGACCGUCCCCUCGGUAAUGGCGAAUGGGACCCA | 0.0594
AGCCGGCAUGGUCCCAGCCUCCUCGCUGGCGCCGGCUGGGCAACAUUCCGAGGGGACCGUCCCCUCGGUAAUGGCGAGUGGGACCCA | 0
AGCCGGCAUGGUCCCAGCCUCCUCGCUGGCGCCGGCUGGGCAACAUUCCGAGGGGACCGUCCCCUCGGUAAUGGCGAUUGGGACCCA | 0.0449
AGCCGGCAUGGUCCCAGCCUCCUCGAUGGCGCCGGCUGGGCAACAUUCCGAGGGGACCGUCCCCUCGGUAAUGGCGAAUGGGACCCA | 0.119
AGCCGGCAUGGUCCCAGCCUCCUCGUUGGCGCCGGCUGGGCAACAUUCCGAGGGGACCGUCCCCUCGGUAAUGGCGAAUGGGACCCA | 0
AGCCGGCAUGGUCCCAGCCUCCUCGGUGGCGCCGGCUGGGCAACAUUCCGAGGGGACCGUCCCCUCGGUAAUGGCGAAUGGGACCCA | 0
AGCCGGCAUGGUCCCAGCCUACUCGCUGGCGCCGGCUGGGCAACAUUCCGAGGGGACCGUCCCCUCGGUAAUGGCGAAUGGGACCCA | 0.104
AGCCGGCAUGGUCCCAGCCUUCUCGCUGGCGCCGGCUGGGCAACAUUCCGAGGGGACCGUCCCCUCGGUAAUGGCGAAUGGGACCCA | 0.121
AGCCGGCAUGGUCCCAGCCUCCUCGCUGGUGCCGGCUGGGCAACAUUCCGAGGGGACCGUCCCCUCGGUAAUGGCGAAUGGGACCCA | 0.0554
AGCCGGCAUGGUCCCAGCCUCCUCGCUGGGGCCGGCUGGGCAACAUUCCGAGGGGACCGUCCCCUCGGUAAUGGCGAAUGGGACCCA | 0

Variant | self-cleavage
AGCCGGCAUGGUCCCAGCCUCCUCGCUGGCGCCGGCUGGGCAACAUUCCGAGGGGACCGUCCCCUCGGUAGUGGCGAAUGGGACCCA | 0.104
AGCCGGCAUGGUCCCAGCCUCCUCGCUGGCGCCGGCUGGGCAACAUUCCGAGGGGACCGUCACCUCGGUAAUGGCGAAUGGGACCCA | 0.0791
AGCCGGCAUGGUCCCAGCCUCCUCGCUGGCGCCGGCUGGGCAACAUUCCGAGGGGACCGUCGCCUCGGUAAUGGCGAAUGGGACCCA | 0.0519
AGCCGGCAUGGUCCCAGCCUCCUCGCUGGCGCCGGCUGGGCACCAUUCCGAGGGGACCGUCCCCUCGGUAAUGGCGAAUGGGACCCA | 0.0415
AGCCGGCAUGGUCCCAGCCUCCUCGCUGGCGCCGGCUGGGCAGCAUUCCGAGGGGACCGUCCCCUCGGUAAUGGCGAAUGGGACCCA | 0.0875
AGCCGGCAUGGUCCCAGCCUCCUCGCUGGCGCCGGCUGGGCAUCAUUCCGAGGGGACCGUCCCCUCGGUAAUGGCGAAUGGGACCCA | 0.0437
AGCCGGCAUGGUCCCAGCCUCCUUGCUGGCGCCGGCUGGGCAACAUUCCGAGGGGACCGUCCCCUCGGUAAUGGCGAAUGGGACCCA | 0.111
AGCCGGCAUGGUCCCAGCCUCCUAGCUGGCGCCGGCUGGGCAACAUUCCGAGGGGACCGUCCCCUCGGUAAUGGCGAAUGGGACCCA | 0.119
AGCCGGCAUGGUCCCAGCCUCCUCGCUGGCGCCGGCUGGGCAACAUUCCGAGGGGACCGUCCACUCGGUAAUGGCGAAUGGGACCCA | 0.289
AGUCGGCAUGGUCCCAGCCUCCUCGCUGGCGCCGGCUGGGCAACAUUCCGAGGGGACCGUCCCCUCGGUAAUGGCGAAUGGGACCCA | 0.297
AGCCGGCAUGGUCCCAGCCUCCUCGCUGGCGCCGGCUGGGCAACAUUCCGAGGGGACCGUCCCCUCGGUUAUGGCGAAUGGGACCCA | 0
AGCCGGCAUGGUCCCAGCCUCCUCGCUGGCGCCGGCUGGGCAACAUUCCGAGGGGACCGUCCCCUCGGUCAUGGCGAAUGGGACCCA | 0.192
AGCCGGCAUGGUCCCAGCCUCCUCGCUGGCGCCGGCUGGGCGACAUUCCGAGGGGACCGUCCCCUCGGUAAUGGCGAAUGGGACCCA | 0.115
AGCCGGCAUGGUCCCAGCCUCCUCGCUGGCGCCGGAUGGGCAACAUUCCGAGGGGACCGUCCCCUCGGUAAUGGCGAAUGGGACCCA | 0.154
AGCCGGCAUGGUCCCAGCCUCCUCGCUGGCGCCGGGUGGGCAACAUUCCGAGGGGACCGUCCCCUCGGUAAUGGCGAAUGGGACCCA | 0.119
AGCCGGCAUGGUCCCAGCCUCCUCGCUGGCGCCGGCUGGGAAACAUUCCGAGGGGACCGUCCCCUCGGUAAUGGCGAAUGGGACCCA | 0.222
AGCCGGCAUGGUCCCAGCCUCCUCGCUGGCGCCGGCUGGGUAACAUUCCGAGGGGACCGUCCCCUCGGUAAUGGCGAAUGGGACCCA | 0.237
AGCCGGGAUGGUCCCAGCCUCCUCGCUGGCGCCGGCUGGGCAACAUUCCGAGGGGACCGUCCCCUCGGUAAUGGCGAAUGGGACCCA | 0.0405
AGCCGGCAUGGUCCCAGCCUCCUCGCUGGCGCCGGCUGGGCAACAUUCCGAGGGGAGCGUCCCCUCGGUAAUGGCGAAUGGGACCCA | 0
AGCCGGCAUGGUCCCAGCCUCCUCGCUGGCGCCGGCUGGGCAACAUUCCGAGGGGAACGUCCCCUCGGUAAUGGCGAAUGGGACCCA | 0.208
